In publication PMC1868780, “Short RNA Guides Cleavage by Eukaryotic RNase III” one finds Kd data, which are given here for one molecule.

In the series the target is T1, Rnt1p (yeast RNase III) (Saccharomyces cerevisiae, UniProt Q02555 1-471).
T1 sequence: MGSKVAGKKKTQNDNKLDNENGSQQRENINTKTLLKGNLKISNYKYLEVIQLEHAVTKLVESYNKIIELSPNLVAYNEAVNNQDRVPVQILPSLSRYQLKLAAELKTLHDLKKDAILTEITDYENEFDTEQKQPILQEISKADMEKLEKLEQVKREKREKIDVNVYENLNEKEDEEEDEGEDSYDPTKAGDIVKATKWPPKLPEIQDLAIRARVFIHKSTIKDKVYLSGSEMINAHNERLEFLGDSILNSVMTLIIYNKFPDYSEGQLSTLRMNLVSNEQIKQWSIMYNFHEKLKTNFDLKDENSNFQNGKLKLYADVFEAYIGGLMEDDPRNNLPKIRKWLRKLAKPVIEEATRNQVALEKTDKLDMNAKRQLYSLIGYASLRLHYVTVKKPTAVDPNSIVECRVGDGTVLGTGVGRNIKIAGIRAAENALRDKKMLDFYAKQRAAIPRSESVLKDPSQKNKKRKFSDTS
Nature of the series: EMSA; apparent K'd; Protein EMSA as in cited ref 12 (buffer not given): 3 fmol 5'-labeled RNA, Rnt1p 0.25-6 uM; trans reactions with 2 pmol cold target. To be noted: protein: recombinant; chain copies: 2; label: 5'-32P; hairpin. On the technique in general: In EMSA bound probe runs differently from free probe, usually more slowly.

B1: 3'-Branch (structured_RNA)
RNA: GCUUGAAGAGGAUGAGUCCAUCCCCAAAACAUUAGCUUGAAAAAGCUAAUGUUUUGGAAUCUUCAAGAUUAUGG
Consider B1, for which the Kd amounted to 750 nM.
